This experiment has as its target gef1_schpo gef1 (UniProt Q09763).

Chain of gef1_schpo gef1 (Q09763 whole entry): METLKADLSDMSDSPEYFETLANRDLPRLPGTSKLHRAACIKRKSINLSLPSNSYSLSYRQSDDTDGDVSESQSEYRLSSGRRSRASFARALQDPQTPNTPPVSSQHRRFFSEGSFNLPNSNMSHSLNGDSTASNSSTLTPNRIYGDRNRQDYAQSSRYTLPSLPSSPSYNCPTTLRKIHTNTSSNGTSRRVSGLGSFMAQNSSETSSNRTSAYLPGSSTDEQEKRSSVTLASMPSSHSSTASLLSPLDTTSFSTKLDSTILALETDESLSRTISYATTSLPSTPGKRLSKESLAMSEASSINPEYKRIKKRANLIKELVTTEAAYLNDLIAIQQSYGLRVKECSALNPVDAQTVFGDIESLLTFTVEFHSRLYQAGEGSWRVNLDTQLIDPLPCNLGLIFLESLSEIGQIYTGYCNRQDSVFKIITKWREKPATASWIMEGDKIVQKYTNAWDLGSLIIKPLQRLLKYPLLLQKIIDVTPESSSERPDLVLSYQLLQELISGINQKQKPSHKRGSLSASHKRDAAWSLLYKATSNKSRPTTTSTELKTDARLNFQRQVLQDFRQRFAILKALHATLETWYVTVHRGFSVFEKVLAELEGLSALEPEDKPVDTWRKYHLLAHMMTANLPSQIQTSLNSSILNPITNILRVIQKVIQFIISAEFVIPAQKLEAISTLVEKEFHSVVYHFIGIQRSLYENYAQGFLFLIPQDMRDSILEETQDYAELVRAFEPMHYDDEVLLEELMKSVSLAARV
Chain of Cell division control protein 42 homolog (Schizosaccharomyces pombe (strain ATCC 38366 / 972)), Q01112 D118A (Q01112 whole entry D118A): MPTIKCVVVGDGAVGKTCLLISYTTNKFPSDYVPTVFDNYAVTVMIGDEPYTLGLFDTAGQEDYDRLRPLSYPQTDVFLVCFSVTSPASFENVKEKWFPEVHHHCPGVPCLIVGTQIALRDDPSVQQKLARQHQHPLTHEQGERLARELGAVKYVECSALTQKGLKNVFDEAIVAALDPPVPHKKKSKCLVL
Chain of Cell division control protein 42 homolog (Schizosaccharomyces pombe (strain ATCC 38366 / 972)), Q01112 T17N (Q01112 whole entry T17N): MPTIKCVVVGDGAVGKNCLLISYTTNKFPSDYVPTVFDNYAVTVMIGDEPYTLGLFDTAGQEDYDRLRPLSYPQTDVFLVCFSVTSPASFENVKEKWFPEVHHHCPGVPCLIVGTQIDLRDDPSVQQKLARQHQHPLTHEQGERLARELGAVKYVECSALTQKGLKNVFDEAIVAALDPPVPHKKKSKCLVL

“Cell division control protein 42 homolog (Schizosaccharomyces pombe (strain ATCC 38366 / 972)), Q01112 D118A”: the “effect of a mutation on the interaction” value is recorded as “increasing interaction”.

For the substance “Cell division control protein 42 homolog (Schizosaccharomyces pombe (strain ATCC 38366 / 972)), Q01112 T17N”, the “effect of a mutation on the interaction” value is on record as “increasing interaction”.

Source of the values: IntAct's records for PubMed 12529446.
